# Patent publication US20240166729A1 (RAMOT AT TEL AVIV UNIVERSITY, published 2024)
# Key:
# [1] = target: T1, His-tagged EspB (EspB-His), recombinant EPEC EspB (enteropathogenic E. coli (EPEC) O127:H6 …, UniProt Q05129 1-321); assay: ELISA on coated EspB, 274 mM NaCl
# T1 construct: also called recombinant EspB (full-length); full-length EspB
# T1 sequence: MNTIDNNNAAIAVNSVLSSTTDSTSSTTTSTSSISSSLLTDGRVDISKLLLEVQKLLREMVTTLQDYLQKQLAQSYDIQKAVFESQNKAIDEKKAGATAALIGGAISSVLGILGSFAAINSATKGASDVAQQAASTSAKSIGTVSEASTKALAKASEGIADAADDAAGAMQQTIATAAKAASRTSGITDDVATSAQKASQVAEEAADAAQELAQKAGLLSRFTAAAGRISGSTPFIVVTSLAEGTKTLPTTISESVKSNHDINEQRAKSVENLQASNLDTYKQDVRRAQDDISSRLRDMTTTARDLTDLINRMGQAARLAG
# [2] = target: T1, His-tagged EspB (EspB-His), recombinant …; assay: ELISA on coated EspB, 411 mM NaCl
# EHEC EspB = target: T2, EHEC EspB; assay: western blot of bacterial supernatant with mAb-EspB-B7
# T2 construct: also called EspB of enterohemorrhagic E. coli
# Salmonella EspB homolog = target: T3, Salmonella EspB homolog (Salmonella enterica serovar Typhimurium, UniProt D0ZV21 1-409); assay: as above
# T3 sequence: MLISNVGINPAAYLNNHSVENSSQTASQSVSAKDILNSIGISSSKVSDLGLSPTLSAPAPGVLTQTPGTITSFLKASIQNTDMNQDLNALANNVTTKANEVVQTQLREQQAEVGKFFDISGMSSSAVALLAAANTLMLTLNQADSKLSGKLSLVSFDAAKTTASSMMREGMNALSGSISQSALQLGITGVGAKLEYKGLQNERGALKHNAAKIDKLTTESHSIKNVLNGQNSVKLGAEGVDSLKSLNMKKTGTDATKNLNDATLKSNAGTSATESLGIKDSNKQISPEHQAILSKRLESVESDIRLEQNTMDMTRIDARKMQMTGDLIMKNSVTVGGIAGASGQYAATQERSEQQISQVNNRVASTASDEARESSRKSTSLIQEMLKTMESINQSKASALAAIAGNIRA
# [3] = target: T1, His-tagged EspB (EspB-His), recombinant …; assay: ELISA on coated EspB, 45.6, 68.5 and 137 mM NaCl (one reading for the bundle)
# [4] = target: T1, His-tagged EspB (EspB-His), recombinant …; assay: ELISA (FIG. 4A) and SPR (FIG. 4B): Biacore, EspB amine-coupled on chip, mAb 10-90 nM, steady-state fit
# [5] = target: T1, His-tagged EspB (EspB-His), recombinant …; assay: indirect ELISA, 5 ug/ml EspB coated, serial dilution of the antibody, goat anti-human H+L HRP
# C. rodentium EspB = target: T4, C. rodentium EspB (Citrobacter rodentium DBS100); assay: western blot of normalized culture supernatants after SDS-PAGE, mAb-EspB-B7 as primary antibody, anti-human IgG HRP
# T4 construct: also called EspB of Citrobacter rodentium
# [6] = target: T5, native EspB of wild-type EPEC; assay: as above
# T5 construct: also called EPEC EspB
# [7] = target: T1, His-tagged EspB (EspB-His), recombinant …; assay: ELISA on coated EspB, antibody in 0.1 M citric acid buffer, pH 7.4, 7.0, 6.6 and 5.6 (one reading for the bundle of four curves)
# [8] = target: T1, His-tagged EspB (EspB-His), recombinant …; assay: ELISA on coated EspB, antibody diluted in 3% milk in PBS or in goat or horse serum with 1% human serum (one reading for the bundle of three curves)
binder,measurement,setting,value
"mAb-EspB-B7 (antibody, V domains shown, also called mAb-B7; B7 IgG1) VH: EVQLLESGGGLVQPGGSLRLSCAASGFTFSHYAMNWVRQAPGKGLEWVSAINSNGDSTYYPDTVKDRFTISRDNSKNTLYLQMNSLRAEDTAVYYCARDRRAGYFDYWGQGTLVTVSS VL: DIVLTQPPSASGTPGQRVTISCSGSRDNIGKNYVSWYQQLPGTAPKLLIYRNNQRPSGVPDRFSGSKSGTSASLAISGLRSEDEADYYCSAWDTSLNAYVFGPGTQLTVL",EC50 (read off the curve),[1],~8 nM
same,EC50 (read off the curve),[2],~10 nM
same,binding result,EHEC EspB,binds
same,binding result,Salmonella EspB homolog,no binding
same,EC50 (read off the curve),[3],~3 nM
same,Kd,[4],17.4 nM
same,EC50 (read off the curve),[5],~8 nM
same,binding result,C. rodentium EspB,binds
same,binding result,[6],binds
same,EC50 (read off the curve),[7],~20 nM
same,EC50 (read off the curve),[8],~3 nM
